The target of experiment [1] is T1, human chemokine receptor CXCR4 fused to the N-terminus of GFP or TagRFP (human), P61073.
T1 chain: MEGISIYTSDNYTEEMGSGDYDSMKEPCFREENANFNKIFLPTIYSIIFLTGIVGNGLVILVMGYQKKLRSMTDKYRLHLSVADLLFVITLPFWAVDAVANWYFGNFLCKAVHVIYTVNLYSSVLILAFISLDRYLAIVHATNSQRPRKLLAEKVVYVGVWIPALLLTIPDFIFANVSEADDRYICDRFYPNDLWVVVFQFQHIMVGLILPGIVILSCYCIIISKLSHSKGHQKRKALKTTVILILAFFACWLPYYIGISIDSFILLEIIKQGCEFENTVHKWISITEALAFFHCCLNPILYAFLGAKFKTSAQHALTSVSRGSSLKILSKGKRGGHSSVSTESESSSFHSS
The experiment can be described thus: FRET or BRET. Conditions: remark: other sources report otherwise. In general terms: Bioluminescence resonance energy transfer reports proximity on the nanometre scale.

The target of experiment [2] is T1, human chemokine receptor CXCR4 fused to …. The experiment can be described thus: FRET or BRET. As to conditions: remark: other sources report otherwise.

B1: human chemokine receptor CXCR4 fused to the N-terminus of GFP or TagRFP, P61073 1-352 (receptor)
chain: MEGISIYTSDNYTEEMGSGDYDSMKEPCFREENANFNKIFLPTIYSIIFLTGIVGNGLVILVMGYQKKLRSMTDKYRLHLSVADLLFVITLPFWAVDAVANWYFGNFLCKAVHVIYTVNLYSSVLILAFISLDRYLAIVHATNSQRPRKLLAEKVVYVGVWIPALLLTIPDFIFANVSEADDRYICDRFYPNDLWVVVFQFQHIMVGLILPGIVILSCYCIIISKLSHSKGHQKRKALKTTVILILAFFACWLPYYIGISIDSFILLEIIKQGCEFENTVHKWISITEALAFFHCCLNPILYAFLGAKFKTSAQHALTSVSRGSSLKILSKGKRGGHSSVSTESESSSFHSS
On to B1, for which the FRET efficiency in experiment [1] is 10.9%; in experiment [2] it was 10.4%.
